Test results reported in patent US20040146519A1.

What was measured:
HLA-A*0201 (human) = test: competitive inhibition of 125I probe peptide, purified HLA
HLA-B*5401 (human) = test: inhibition of 125I probe peptide, purified HLA; conditions: remark: other sources report otherwise
HLA-B*0702 (human) = test: inhibition of 125I probe peptide, purified HLA; conditions: remark: other sources report otherwise
HLA-B*5301 (human) = test: inhibition of 125I probe peptide, purified HLA; conditions: remark: other sources report otherwise
HLA-B*5101 (human) = test: inhibition of 125I probe peptide, purified HLA; conditions: remark: other sources report otherwise
HLA-A*0206 (human) [1] = test: competition with 125I probe peptide for purified HLA; conditions: remark: other sources report otherwise
HLA-A*3101 (human) = test: as above; conditions: remark: other sources report otherwise
HLA-DRB1*1302 (human) = biological target: T1, HLA-DRB1*1302 (human); test: competition with 125I probe peptide, purified HLA; conditions: remark: other sources report otherwise
T1 chain 1: not shown
T1 chain 2: not shown

HLA-DRB1*1501 (human) = biological target: T2, HLA-DRB1*1501 (human); test: competition with 125I probe peptide, purified HLA; conditions: remark: other sources report otherwise
T2 chain 1: not shown
T2 chain 2: not shown

HLA-A*0206 (human) [2] = test: inhibition of 125I probe peptide, purified HLA; conditions: remark: other sources report otherwise

SLLTFWNPPT [CEA peptide, position 23, 10 amino acids]
relative binding ratio (IC50 standard/IC50 peptide) (HLA-A*0201 (human)): 0.0022

IPWQRLLLTA [CEA.13, 10 AA]
IC50 (HLA-B*5401 (human)): 0.0032 µM

LPQHLFGYSI [CEA.58.I10]
IC50 (HLA-B*0702 (human)): 0.212 µM
IC50 (HLA-B*5301 (human)): 0.93 µM

IPWQRLLLTI [CEA.13.I10]
IC50 (HLA-B*5401 (human)): 0.27 µM
IC50 (HLA-B*0702 (human)): 0.039 µM
IC50 (HLA-B*5101 (human)): 0.019 µM

YPNASLLI [CEA.102]
IC50 (HLA-B*5401 (human)): 0.137 µM
IC50 (HLA-B*5301 (human)): 0.04 µM

YLSGANLNV [CEA.605V9]
IC50 (HLA-A*0206 (human) [1]): 0.08 µM

RVLTLFNVTR [CEA.554.V2]
IC50 (HLA-A*3101 (human)): 0.009 µM

RWCIPWQRLLLTASL [CEA.10]
IC50 (HLA-DRB1*1302 (human)): 0.318 µM
IC50 (HLA-DRB1*1501 (human)): 0.827 µM

RTLTLLSVTR [CEA.376]
IC50 (HLA-A*3101 (human)): 0.0062 µM

YLSGANLNV [CEA.605.V9]
IC50 (HLA-A*0206 (human) [2]): 0.08 µM

RTLTLFNVTR [CEA.554]
IC50 (HLA-A*3101 (human)): 0.005 µM
